This note sets out measurements from article PMC5102385, “Structure of a Spumaretrovirus Gag Central Domain Reveals an Ancient Retroviral Capsid” (PLoS Pathogens, 2016).

Series [1] concerns the molecule itself. In words: AUC; multi-speed sedimentation equilibrium at varying protein concentration, 20 mM Tris-HCl pH 8, 150 mM NaCl, 0.5 mM TCEP, interference data, global fit with SEDPHAT; monomer to dimer.
Series [2] concerns the molecule itself. The series is described as above. The source holds these as a separate data set.

B1: PFV-Gag CtDCEN (domain or fragment)
chain: RTHGTFPMHQLGNVIKGIVDQEGVATAYTLGMMLSGQNYQLVSGIIRGYLPGQAVVTALQQRLDQEIDNQTRAETFIQHLNAVYEILGLNARGQSIR
notes: Gag of Prototype foamy virus (PFV), residues 381-477 (CtDCEN), amplified from plasmid pcziGag4, in pET22b (NdeI/XhoI); also called PFV-CtDCEN; source: E. coli Rosetta 2 (DE3), purified (Ni-NTA, SEC on Superdex 75)
One may read the Kd as the concentration at which binding is half-saturated. A high value points to lower affinity. For orientation: stoichiometry N means the number of molecules, sites or subunits per partner or assembly. For the protein B1, the affinity in series [1], expressed as Kd, was 900 nM. In series [2], the Ka was 1.1e+06 M⁻¹ and the “stoichiometry N” value came to 2.
